The values that follow come from paper PMC4046962.

The assay concerns the target SiaM (Streptomyces sp. A7248). Briefly: small-angle X-ray scattering (SAXS); SiaM in 10 mM Na2HPO4, 1.8 mM KH2PO4, 400 mM Na2SO4, pH 8.3, 4°C; curves of monomer, two dimers and tetramer fitted with CRYSOL; mixture analysed with OLIGOMER

What is called stoichiometry N is the number of molecules, sites or subunits per partner or assembly.

In the case of SiaM (enzyme), the stoichiometry N came to 4.
